Holding throughout (experiment): purified protein
Series [1] concerns CC(C)(COP(=O)(O)OP(=O)(O)OC[C@H]1O[C@@H](n2cnc3c(N)ncnc32)[C@H](O)[C@@H]1OP(=O)(O)O)[C@@H](O)C(=O)NCCC(=O)NCCSC(=O)CCC(=O)O. As to conditions: co-substrate propionate 20 mM, 100 mM Tris-HCl pH 7.8, 5 mM MgCl2, 5 mM DTT, 55 °C.
The next series has as its system O=C(O)CCCO. As to conditions: co-substrate acetyl-CoA 1 mM, 100 mM Tris-HCl pH 7.8, 5 mM MgCl2, 5 mM DTT, 55 °C.
Series [2] has as its system CCC(=O)SCCNC(=O)CCNC(=O)[C@H](O)C(C)(C)COP(=O)(O)OP(=O)(O)OC[C@H]1O[C@@H](n2cnc3c(N)ncnc32)[C@H](O)[C@@H]1OP(=O)(O)O. As to conditions: co-substrate acetate 20 mM, 100 mM Tris-HCl pH 7.8, 5 mM MgCl2, 5 mM DTT, 55 °C.
Series [3] concerns CC(=O)SCCNC(=O)CCNC(=O)[C@H](O)C(C)(C)COP(=O)(O)OP(=O)(O)OC[C@H]1O[C@@H](n2cnc3c(N)ncnc32)[C@H](O)[C@@H]1OP(=O)(O)O. As to conditions: co-substrate succinate 40 mM, 100 mM Tris-HCl pH 7.8, 5 mM MgCl2, 5 mM DTT, 55 °C.
For the next series, the system named is CCC(=O)O. As to conditions: co-substrate acetyl-CoA 2 mM, 100 mM Tris-HCl pH 7.8, 5 mM MgCl2, 5 mM DTT, 55 °C.

Broadly, the Km is the concentration of substrate that gives half-maximal velocity. For orientation: kcat/Km means the turnover number divided by the Michaelis constant. One may read the Vmax as the top rate of the reaction or transport when substrate is in excess.

For “succinyl-CoA:acetate CoA-transferase encoded by the AHF96498 gene (AHF96498 gene product) (Desulfurella acetivorans A63)”, the Michaelis constant (Km) stood at 1200 ± 300 µM in series [1]; 400 ± 100 µM in the series with O=C(O)CCCO; 1100 ± 300 µM in series [2]; 200 ± 40 µM in series [3]; 3900 ± 800 µM in the series on CCC(=O)O. Moreover, the kcat/Km in series [1] came to 14000 M⁻¹ s⁻¹; in the series with O=C(O)CCCO it was 24000 M⁻¹ s⁻¹; in series [2], 584000 M⁻¹ s⁻¹; in series [3], 534000 M⁻¹ s⁻¹; in the series with CCC(=O)O, 223000 M⁻¹ s⁻¹. For the same substance, the maximal velocity (Vmax) in the series on O=C(O)CCCO was 7.7 µmol/min/mg; in series [2], 669 µmol/min/mg; in series [3], 90 µmol/min/mg; with CCC(=O)O, 875 µmol/min/mg.

The values are drawn from PMC9768450.
